B2: Purified recombinant HCV envelope glycoprotein E2 (Ala 384-Lys 715) (other)
chain: ETHVTGGSAGHTVSGFVSLLAPGAKQNVQLINTNGSWHLNSTALNCNDSLNTGWLAGLFYHHKFNSSGCPERLASCRPLTDFDQGWGPISYANGSGPDQRPYCWHYPPKPCGIVPAKSVCGPVYCFTPSPVVVGTTDRSGAPTYSWGENDTDVFVLNNTRPPLGNWFGCTWMNSTGFTKVCGAPPCVIGGAGNNTLHCPTDCFRKHPDATYSRCGSGPWITPRCLVDYPYRLWHYPCTINYTIFKIRMYVGGVEHRLEAACNWTRGERCDLEDRDRSELSPLLLTTTQWQVLPCSFTTLPALSTGLIHLHQNIVDVQYLYGVGSSIASWAIK
notes: also called HCV E2; HCV-E2

Columns and labels:
[1] = molecular target: B2; assay: flow cytometry, recombinant E2 on mouse 3T3 cells expressing only murine CD81
[2] = molecular target: T1, apoprotein B (apoB100), delipidized protein (human, UniProt P04114 28-4563); assay: flow cytometry on MOLT-4 cells incubated with E2, apo-B delipidized protein and E2/apoB; cell-bound E2 detected with antibody 108
T1 construct: also called apo-B delipidized protein; apoprotein apoB100
T1 sequence (P04114 28-4563 limits assumed): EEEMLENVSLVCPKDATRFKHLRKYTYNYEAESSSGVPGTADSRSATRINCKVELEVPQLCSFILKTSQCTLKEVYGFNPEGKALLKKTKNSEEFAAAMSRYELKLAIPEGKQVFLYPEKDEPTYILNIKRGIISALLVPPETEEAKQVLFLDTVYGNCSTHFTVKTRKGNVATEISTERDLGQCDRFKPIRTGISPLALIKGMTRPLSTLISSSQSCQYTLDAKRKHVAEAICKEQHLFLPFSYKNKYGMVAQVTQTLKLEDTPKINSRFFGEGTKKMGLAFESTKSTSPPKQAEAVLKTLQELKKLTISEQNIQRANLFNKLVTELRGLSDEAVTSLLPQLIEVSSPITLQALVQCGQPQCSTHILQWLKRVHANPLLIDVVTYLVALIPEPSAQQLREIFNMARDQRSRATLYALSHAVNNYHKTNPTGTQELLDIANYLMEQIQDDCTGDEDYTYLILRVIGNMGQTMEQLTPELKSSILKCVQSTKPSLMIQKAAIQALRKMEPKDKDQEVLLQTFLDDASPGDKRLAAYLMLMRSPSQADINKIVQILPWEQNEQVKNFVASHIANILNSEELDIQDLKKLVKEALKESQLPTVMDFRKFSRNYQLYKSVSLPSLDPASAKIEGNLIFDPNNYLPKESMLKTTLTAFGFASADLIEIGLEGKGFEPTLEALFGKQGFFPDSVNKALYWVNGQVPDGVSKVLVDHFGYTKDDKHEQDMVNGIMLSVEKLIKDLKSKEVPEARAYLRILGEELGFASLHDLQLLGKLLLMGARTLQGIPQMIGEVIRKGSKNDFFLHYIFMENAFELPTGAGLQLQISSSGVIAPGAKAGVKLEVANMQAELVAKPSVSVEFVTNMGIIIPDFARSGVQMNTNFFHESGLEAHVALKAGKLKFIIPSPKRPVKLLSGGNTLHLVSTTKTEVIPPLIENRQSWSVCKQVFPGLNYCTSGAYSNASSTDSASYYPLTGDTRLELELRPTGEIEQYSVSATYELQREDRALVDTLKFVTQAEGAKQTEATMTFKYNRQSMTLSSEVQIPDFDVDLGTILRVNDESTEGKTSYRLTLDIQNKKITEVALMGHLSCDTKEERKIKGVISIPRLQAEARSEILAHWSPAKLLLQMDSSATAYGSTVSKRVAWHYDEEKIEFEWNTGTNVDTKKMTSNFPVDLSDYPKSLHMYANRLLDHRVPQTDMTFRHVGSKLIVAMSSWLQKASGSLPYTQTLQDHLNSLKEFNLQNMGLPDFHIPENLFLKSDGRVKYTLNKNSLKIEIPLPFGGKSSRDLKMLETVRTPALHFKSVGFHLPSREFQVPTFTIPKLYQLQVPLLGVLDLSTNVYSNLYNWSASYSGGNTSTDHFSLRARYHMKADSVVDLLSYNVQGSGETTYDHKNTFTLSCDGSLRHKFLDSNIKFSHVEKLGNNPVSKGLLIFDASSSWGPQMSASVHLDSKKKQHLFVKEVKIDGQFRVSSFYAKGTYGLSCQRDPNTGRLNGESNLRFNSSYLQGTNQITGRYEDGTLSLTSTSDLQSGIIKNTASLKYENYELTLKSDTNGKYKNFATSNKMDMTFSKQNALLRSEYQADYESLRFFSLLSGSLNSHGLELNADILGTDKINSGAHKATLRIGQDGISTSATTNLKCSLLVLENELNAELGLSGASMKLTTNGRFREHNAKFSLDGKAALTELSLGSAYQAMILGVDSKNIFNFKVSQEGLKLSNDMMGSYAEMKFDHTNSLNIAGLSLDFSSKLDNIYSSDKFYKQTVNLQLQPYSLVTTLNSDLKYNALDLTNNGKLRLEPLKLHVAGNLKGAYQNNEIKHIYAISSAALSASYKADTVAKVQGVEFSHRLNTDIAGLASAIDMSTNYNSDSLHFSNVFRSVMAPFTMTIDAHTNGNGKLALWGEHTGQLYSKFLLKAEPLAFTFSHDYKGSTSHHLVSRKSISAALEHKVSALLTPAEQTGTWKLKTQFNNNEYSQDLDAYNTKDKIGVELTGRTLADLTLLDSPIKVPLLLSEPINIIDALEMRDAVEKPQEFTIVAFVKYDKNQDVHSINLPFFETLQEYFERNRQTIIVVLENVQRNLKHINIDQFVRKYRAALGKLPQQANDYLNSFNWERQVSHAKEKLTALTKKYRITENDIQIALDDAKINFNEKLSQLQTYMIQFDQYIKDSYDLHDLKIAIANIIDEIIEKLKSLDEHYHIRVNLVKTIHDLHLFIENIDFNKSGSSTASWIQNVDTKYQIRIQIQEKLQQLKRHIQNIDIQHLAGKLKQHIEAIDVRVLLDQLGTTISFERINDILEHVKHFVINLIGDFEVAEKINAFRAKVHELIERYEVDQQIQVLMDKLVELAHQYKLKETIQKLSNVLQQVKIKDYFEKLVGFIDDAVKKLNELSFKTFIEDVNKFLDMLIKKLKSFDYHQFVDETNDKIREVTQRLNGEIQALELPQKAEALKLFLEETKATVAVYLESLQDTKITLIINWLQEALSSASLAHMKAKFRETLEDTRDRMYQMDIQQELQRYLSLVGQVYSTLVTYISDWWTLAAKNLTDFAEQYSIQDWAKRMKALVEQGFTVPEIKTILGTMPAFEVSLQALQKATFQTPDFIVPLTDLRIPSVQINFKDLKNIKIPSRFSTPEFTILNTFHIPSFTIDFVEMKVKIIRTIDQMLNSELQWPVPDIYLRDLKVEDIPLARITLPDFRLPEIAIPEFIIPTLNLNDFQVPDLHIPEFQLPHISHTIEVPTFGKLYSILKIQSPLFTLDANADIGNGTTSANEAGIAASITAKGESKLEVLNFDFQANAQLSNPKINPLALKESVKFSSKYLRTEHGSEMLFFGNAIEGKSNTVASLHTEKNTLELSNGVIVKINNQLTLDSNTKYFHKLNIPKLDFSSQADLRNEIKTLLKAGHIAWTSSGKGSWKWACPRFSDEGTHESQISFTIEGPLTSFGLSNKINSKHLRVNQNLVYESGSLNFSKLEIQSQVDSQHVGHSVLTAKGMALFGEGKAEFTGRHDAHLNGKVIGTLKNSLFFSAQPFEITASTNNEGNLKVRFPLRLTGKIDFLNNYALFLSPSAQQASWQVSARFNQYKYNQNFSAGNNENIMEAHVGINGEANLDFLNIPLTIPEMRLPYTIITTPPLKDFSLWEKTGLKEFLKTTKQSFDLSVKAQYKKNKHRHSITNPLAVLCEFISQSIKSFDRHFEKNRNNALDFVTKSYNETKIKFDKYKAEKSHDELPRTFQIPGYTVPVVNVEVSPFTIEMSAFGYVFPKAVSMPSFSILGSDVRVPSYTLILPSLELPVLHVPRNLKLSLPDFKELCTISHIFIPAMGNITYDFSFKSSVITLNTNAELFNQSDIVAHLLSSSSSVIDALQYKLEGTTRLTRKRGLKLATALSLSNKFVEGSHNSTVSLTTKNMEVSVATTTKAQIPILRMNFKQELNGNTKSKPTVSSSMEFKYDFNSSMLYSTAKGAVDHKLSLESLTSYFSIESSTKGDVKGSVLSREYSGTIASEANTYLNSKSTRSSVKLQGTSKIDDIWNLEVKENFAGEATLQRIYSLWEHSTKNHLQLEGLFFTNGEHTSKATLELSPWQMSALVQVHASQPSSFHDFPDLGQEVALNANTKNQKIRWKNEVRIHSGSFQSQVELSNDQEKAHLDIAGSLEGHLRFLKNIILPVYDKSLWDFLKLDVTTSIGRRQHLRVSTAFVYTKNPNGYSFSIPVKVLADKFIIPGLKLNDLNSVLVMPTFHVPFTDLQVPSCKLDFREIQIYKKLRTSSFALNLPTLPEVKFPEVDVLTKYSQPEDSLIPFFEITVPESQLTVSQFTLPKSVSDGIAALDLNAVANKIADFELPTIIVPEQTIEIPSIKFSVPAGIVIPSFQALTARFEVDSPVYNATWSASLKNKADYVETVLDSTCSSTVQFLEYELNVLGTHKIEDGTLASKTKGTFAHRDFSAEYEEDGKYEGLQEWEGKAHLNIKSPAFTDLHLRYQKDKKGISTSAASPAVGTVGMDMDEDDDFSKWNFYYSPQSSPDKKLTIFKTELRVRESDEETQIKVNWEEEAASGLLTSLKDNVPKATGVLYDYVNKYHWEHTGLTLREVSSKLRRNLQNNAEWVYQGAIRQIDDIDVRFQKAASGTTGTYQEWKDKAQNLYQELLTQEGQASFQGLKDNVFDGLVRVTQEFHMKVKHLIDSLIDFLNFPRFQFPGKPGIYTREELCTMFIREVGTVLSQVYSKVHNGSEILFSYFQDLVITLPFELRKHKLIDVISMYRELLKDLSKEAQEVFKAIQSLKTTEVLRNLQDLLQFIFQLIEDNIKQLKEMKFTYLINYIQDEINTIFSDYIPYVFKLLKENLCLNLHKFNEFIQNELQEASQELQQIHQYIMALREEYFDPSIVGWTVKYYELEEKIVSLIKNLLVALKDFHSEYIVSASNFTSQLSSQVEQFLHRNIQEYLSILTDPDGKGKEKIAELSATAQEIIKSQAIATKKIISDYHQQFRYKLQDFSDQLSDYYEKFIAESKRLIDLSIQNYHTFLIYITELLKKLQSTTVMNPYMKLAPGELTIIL

[3] = molecular target: T1, apoprotein B (apoB100), delipidized …; assay: flow cytometry on MOLT-4 cells, cell-bound apoB detected with goat polyclonal antibody

B1: murine CD81 on parental (control) mouse 3T3 cells (receptor, UniProt P35762 1-236, looked up)
chain: MGVEGCTKCIKYLLFVFNFVFWLAGGVILGVALWLRHDPQTTSLLYLELGNKPAPNTFYVGIYILIAVGAVMMFVGFLGCYGAIQESQCLLGTFFTCLVILFACEVAAGIWGFVNKDQIAKDVKQFYDQALQQAVMDDDANNAKAVVKTFHETLNCCGSNALTTLTTTILRNSLCPSGGNILTPLLQQDCHQKIDELFSGKLYLIGIAAIVVAVIMIFEMILSMVLCCGIRNSSVY
notes: whole, on cells; also called control 3T3 cells
- binding result [1]: no binding

Binder: B2
- binding result [2]: no binding

B3: human low density lipoprotein receptor (LDLr) on MOLT-4 cells (receptor)
chain: not shown
notes: whole, on cells; also called human LDLr; hLDLr
- binding result [3]: binds
